± gives the standard deviation of the averaged measurements.

The record followed here is the supplement of paper PMC11246515.

The nature of this data set: total protein half-life in vivo (active degradation + dilution); higher = more stable protein.
The mark [1] stands for this setting: E. coli NCM3722 delta-clpP delta-lon delta-hslV, growth: N-lim chemostat, doubling time 6 h.
[2] abbreviates: E. coli NCM3722 delta-clpP, growth: N-lim chemostat, doubling time 6 h.
Where [3] appears, read: E. coli NCM3722 delta-hslV, growth: N-lim chemostat, doubling time 6 h.
Where [4] appears, read: E. coli NCM3722 delta-lon, growth: N-lim chemostat, doubling time 6 h.
Where [5] appears, read: E. coli NCM3722 delta-smpB, growth: N-lim chemostat, doubling time 6 h.
[6] abbreviates: wild type E. coli NCM3722, growth: C-lim chemostat, doubling time 3 h.
Setting [7] is: wild type E. coli NCM3722, growth: C-lim chemostat, doubling time 6 h.
Where [8] appears, read: wild type E. coli NCM3722, growth: C-lim chemostat, doubling time 12 h.
The mark [9] stands for this setting: wild type E. coli NCM3722, growth: N-lim chemostat, doubling time 6 h.
Where [10] appears, read: wild type E. coli NCM3722, growth: N-lim chemostat, doubling time 12 h.
Setting [11] is: wild type E. coli NCM3722, growth: P-lim chemostat, doubling time 6 h.
Setting [12] is: wild type E. coli NCM3722, growth: P-lim chemostat, doubling time 12 h.

Regarding “MHWQTHTVFNQPIPLNNSNLYLSDGALCEAVTREGAGWDSDFLASIGQQLGTAESLELGRLANVNPPELLRYDAQGRRLDDVRFHPAWHLLMQALCTNRVHNLAWEEDARSGAFVARAARFMLHAQVEAGSLCPITMTFAATPLLLQMLPAPFQDWTTPLLSDRYDSHLLPGGQKRGLLIGMGMTEKQGGSDVMSNTTRAERLEDGSYRLVGHKWFFSVPQSDAHLVLAQTAGGLSCFFVPRFLPDGQRNAIRLERLKDKLGNRSNASCEVEFQDAIGWLLGLEGEGIRLILKMGGMTRFDCALGSHAMMRRAFSLAIYHAHQRHVFGNPLIQQPLMRHVLSRMALQLEGQTALLFRLARAWDRRADAKEALWARLFTPAAKFVICKRGMPFVAEAMEVLGGIGYCEESELPRLYREMPVNSIWEGSGNIMCLDVLRVLNKQAGVYDLLSEAFVEVKGQDRYFDRAVRRLQQQLRKPAEELGREITHQLFLLGCGAQMLKYASPPMAQAWCQVMLDTRGGVRLSEQIQNDLLLRATGGVCV”, the “total protein half-life in vivo” value under setting [1] came to 4.81 ± 0.12 h; the “total protein half-life in vivo” value under setting [2] is 4.91 ± 0.18 h; the “total protein half-life in vivo” value under setting [3] turned out to be 5.583 ± 0.035 h; the “total protein half-life in vivo” value under setting [4] was 4.72 ± 0.15 h; the “total protein half-life in vivo” value under setting [5] is 5.28 ± 0.11 h; the “total protein half-life in vivo” value under setting [6] was determined as 3.296 ± 0.026 h. Besides, the “total protein half-life in vivo” value reads like this: under setting [7], 5.91 ± 0.25 h; under setting [8], 11.3 ± 0.59 h; under setting [9], 5.18 ± 0.13 h; under setting [10], 11.5 ± 0.84 h; under setting [11], 6.51 ± 0.25 h; under setting [12], 11.5 ± 0.058 h.
Turning to “MSLSRRQFIQASGIALCAGAVPLKASAAGQQQPLPVPPLLESRRGQPLFMTVQRAHWSFTPGTRASVWGINGRYLGPTIRVWKGDDVKLIYSNRLTENVSMTVAGLQVPGPLMGGPARMMSPNADWAPVLPIRQNAATLWYHANTPNRTAQQVYNGLAGMWLVEDEVSKSLPIPNHYGVDDFPVIIQDKRLDNFGTPEYNEPGSGGFVGDTLLVNGVQSPYVEVSRGWVRLRLLNASNSRRYQLQMNDGRPLHVISGDQGFLPAPVSVKQLSLAPGERREILVDMSNGDEVSITCGEAASIVDRIRGFFEPSSILVSTLVLTLRPTGLLPLVTDSLPMRLLPTEIMAGSPIRSRDISLGDDPGINGQLWDVNRIDVTAQQGTWERWTVRADEPQAFHIEGVMFQIRNVNGAMPFPEDRGWKDTVWVDGQVELLVYFGQPSWAHFPFYFNSQTLEMADRGSIGQLLVNPVP”, the “total protein half-life in vivo” value under setting [1] worked out at 6.39 ± 0.28 h; the “total protein half-life in vivo” value under setting [2] worked out at 6.3 ± 0.19 h; the “total protein half-life in vivo” value under setting [3] was 6.17 ± 0.57 h; the “total protein half-life in vivo” value under setting [4] turned out to be 6.21 ± 0.34 h; the “total protein half-life in vivo” value under setting [5] came to 6.12 ± 0.66 h; the “total protein half-life in vivo” value under setting [6] worked out at 3.28 ± 0.037 h. The “total protein half-life in vivo” value amounted to 6.047 ± 0.037 h under setting [7]; 11.19 ± 0.06 h under setting [8]; 6.13 ± 0.41 h under setting [9]; 13.5 ± 0.45 h under setting [10]; 5.88 ± 0.35 h under setting [11]; 12.5 ± 0.35 h under setting [12].
Consider “MKLQLVAVGTKMPDWVQTGFTEYLRRFPKDMPFELIEIPAGKRGKNADIKRILDKEGEQMLAAAGKNRIVTLDIPGKPWDTPQLAAELERWKLDGRDVSLLIGGPEGLSPACKAAAEQSWSLSALTLPHPLVRVLVAESLYRAWSITTNHPYHRE [P0A8I8]”, for which the “total protein half-life in vivo” value is, setting by setting: under setting [1], 5.401 ± 0.053 h; under setting [2], 3.23 ± 0.13 h; under setting [3], 5.99 ± 1.1 h; under setting [4], 6.18 ± 1.4 h; under setting [5], 3.18 ± 0.43 h; under setting [6], 2.78 ± 0.13 h. Moreover, the “total protein half-life in vivo” value under setting [7] came out at 4.96 ± 0.5 h; the “total protein half-life in vivo” value under setting [8] worked out at 9.34 ± 2 h; the “total protein half-life in vivo” value under setting [9] worked out at 4.87 ± 0.21 h; the “total protein half-life in vivo” value under setting [10] is 8.26 ± 0.7 h; the “total protein half-life in vivo” value under setting [11] was determined as 4.57 ± 0.29 h; the “total protein half-life in vivo” value under setting [12] was determined as 9.29 ± 0.3 h.
As for “MPFKPLVTAGIESLLNTFLYRSPALKTARSRLLGKVLRVEVKGFSTSLILVFSERQVDVLGEWAGDADCTVIAYASVLPKLRDRQQLTALIRSGELEVQGDIQVVQNFVALADLAEFDPAELLAPYTGDIAAEGISKAMRGGAKFLHHGIKRQQRYVAEAITEEWRMAPGPLEVAWFAEETAAVERAVDALTKRLEKLEAK [P0ADP7]”, the “total protein half-life in vivo” value by setting is: under setting [1], 5.27 ± 0.14 h; under setting [4], 4.977 ± 0.043 h; under setting [5], 4.88 ± 0.14 h; under setting [6], 2.77 ± 0.21 h; under setting [7], 4.84 ± 0.24 h; under setting [8], 7.62 ± 0.27 h. For the same sequence, the “total protein half-life in vivo” value by setting is: under setting [9], 4.76 ± 0.091 h; under setting [10], 8.56 ± 0.1 h; under setting [11], 4.93 ± 0.25 h; under setting [12], 8.919 ± 0.012 h.
On to “MKRLSITVRLTLLFILLLSVAGAGIVWTLYNGLASELKWRDDTTLINRTAQIKQLLIDGVNPDTLPVYFNRMMDVSQDILIIHGDSINKIVNRTNVSDGMLNNIPASETISAAGIYRSIINDTEIDALRINIDEVSPSLTVTVAKLASARHNMLEQYKINSIIICIVAIVLCSVLSPLLIRTGLREIKKLSGVTEALNYNDSREPVEVSALPRELKPLGQALNKMHHALVKDFERLSQFADDLAHELRTPINALLGQNQVTLSQTRSIAEYQKTIAGNIEELENISRLTENILFLARADKNNVLVKLDSLSLNKEVENLLDYLEYLSDEKEICFKVECNQQIFADKILLQRMLSNLIVNAIRYSPEKSRIHITSFLDTNSYLNIDIASPGTKINEPEKLFRRFWRGDNSRHSVGQGLGLSLVKAIAELHGGSATYHYLNKHNVFRITLPQRN”, for which the “total protein half-life in vivo” value by setting is: under setting [1], 5.59 ± 0.15 h; under setting [2], 6.99 ± 0.076 h; under setting [3], 6.03 ± 0.26 h; under setting [5], 5.75 ± 0.48 h; under setting [6], 3.13 ± 0.66 h; under setting [7], 7.13 ± 0.64 h. For the same sequence, the “total protein half-life in vivo” value worked out at 10.1 h under setting [8]; 6.174 ± 0.057 h under setting [9]; 12.98 ± 0.022 h under setting [10]; 5.63 ± 0.89 h under setting [11]; 13.4 ± 0.56 h under setting [12].
In the case of “MHFLRRPISLRQRLILTIGAILLVFELISVFWLWHESTEQIQLFEQALRDNRNNDRHIMREIREAVASLIVPGVFMVSLTLFICYQAVRRITRPLAELQKELEARTADNLTPIAIHSATLEIEAVVSALNDLVSRLTSTLDNERLFTADVAHELRTPLAGVRLHLELLAKTHHIDVAPLVARLDQMMESVSQLLQLARAGQSFSSGNYQHVKLLEDVILPSYDELSTMLDQRQQTLLLPESAADITVQGDATLLRMLLRNLVENAHRYSPQGSNIMIKLQEDDGAVMAVEDEGPGIDESKCGELSKAFVRMDSRYGGIGLGLSIVSRITQLHHGQFFLQNRQETSGTRAWVRLKKDQYVANQI”, the “total protein half-life in vivo” value runs as follows: under setting [1], 5.995 ± 0.044 h; under setting [3], 4.89 ± 1.3 h; under setting [4], 6.2 ± 1.3 h; under setting [5], 5.5 ± 0.35 h; under setting [6], 3.17 ± 0.22 h; under setting [7], 5.99 ± 0.74 h. The “total protein half-life in vivo” value came to 11.5 ± 0.59 h under setting [8]; 5.9 ± 0.18 h under setting [9]; 12.7 ± 0.62 h under setting [10]; 6.25 ± 0.75 h under setting [11]; 11.1 ± 1.5 h under setting [12].
